Measured values: patent US20180291110A1 (Hoffmann-La Roche, published 2018)

Biological target: T1, human transferrin receptor (recombinant, for surface plasmon resonance) (human, UniProt P02786 89-760)
T1 construct: also called huTfR; human transferrin receptor-biotinylated
Test: SPR

T1 sequence (P02786 89-760 limits assumed): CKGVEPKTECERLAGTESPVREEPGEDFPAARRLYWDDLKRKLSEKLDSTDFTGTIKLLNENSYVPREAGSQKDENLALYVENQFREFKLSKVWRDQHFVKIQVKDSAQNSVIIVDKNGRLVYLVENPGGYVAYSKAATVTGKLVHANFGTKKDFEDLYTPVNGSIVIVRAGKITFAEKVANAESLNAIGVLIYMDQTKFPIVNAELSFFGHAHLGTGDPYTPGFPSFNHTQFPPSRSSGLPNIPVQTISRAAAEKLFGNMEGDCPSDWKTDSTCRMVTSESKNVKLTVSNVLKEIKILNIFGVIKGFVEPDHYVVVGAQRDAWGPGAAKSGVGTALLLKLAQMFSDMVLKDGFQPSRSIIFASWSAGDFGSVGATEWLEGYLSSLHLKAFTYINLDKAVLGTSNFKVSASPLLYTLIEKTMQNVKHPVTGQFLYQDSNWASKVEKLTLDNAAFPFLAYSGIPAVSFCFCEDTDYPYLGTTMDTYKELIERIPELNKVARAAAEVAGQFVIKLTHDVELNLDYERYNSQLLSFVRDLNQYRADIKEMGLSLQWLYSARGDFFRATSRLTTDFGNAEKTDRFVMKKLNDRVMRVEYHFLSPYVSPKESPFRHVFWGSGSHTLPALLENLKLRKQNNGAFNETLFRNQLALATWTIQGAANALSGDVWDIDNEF

Binder | koff [s⁻¹]
4/94 SEQ ID NO 196 / SEQ ID NO 207 (antibody, V domains shown) VH: QVQLVQSGAEVKKPGASVKVSCKASGFNIKDTYIHWVIQAPGQGLEWMGRIDPANGDTKSDPKFQGRVTITADTSTSTVYMELSSLRSEDTAVYYCVRDYLYPYYFDFWGQGTTVTVSS VL: KIVLTQSPGTLSLSPGERATLSCRASESVDTYVSWYQQKPGQAPRLLIYGASNRYTGVPDRFSGSGSGTDFTLTISRLEPEDFADYYCGQTYNYPLTFGQGTKLEI | 0.00043
4/94 SEQ ID NO 196 / SEQ ID NO 201 (antibody, V domains shown) VH: QVQLVQSGAEVKKPGASVKVSCKASGFNIKDTYIHWVIQAPGQGLEWMGRIDPANGDTKSDPKFQGRVTITADTSTSTVYMELSSLRSEDTAVYYCVRDYLYPYYFDFWGQGTTVTVSS VL: KIQMTQSPSSLSASVGDRVTITCRASESVDTYVSWYQQKPGKAPKLLIYGASNRYTGVPSRFSGSGSGTDFTLTISSLQPEDFADYYCGQTYNYPLTFGQGTKLEI | 0.000386
4/94 SEQ ID NO 194 / SEQ ID NO 207 (antibody, V domains shown) VH: QVQLVQSGAEVKKPGASVKVSCKASGFNIKDTYIHWVIQAPGQGLEWMGRIDPANGDTKSDPKFQVRVTITADTSTSTVYMELSSLRSEDTAVYYCVRDYLYPYYFDFWGQGTTVTVSS VL: KIVLTQSPGTLSLSPGERATLSCRASESVDTYVSWYQQKPGQAPRLLIYGASNRYTGVPDRFSGSGSGTDFTLTISRLEPEDFADYYCGQTYNYPLTFGQGTKLEI | 0.000454
4/94 SEQ ID NO 194 / SEQ ID NO 201 (antibody, V domains shown) VH: QVQLVQSGAEVKKPGASVKVSCKASGFNIKDTYIHWVIQAPGQGLEWMGRIDPANGDTKSDPKFQVRVTITADTSTSTVYMELSSLRSEDTAVYYCVRDYLYPYYFDFWGQGTTVTVSS VL: KIQMTQSPSSLSASVGDRVTITCRASESVDTYVSWYQQKPGKAPKLLIYGASNRYTGVPSRFSGSGSGTDFTLTISSLQPEDFADYYCGQTYNYPLTFGQGTKLEI | 0.00041
4/94 SEQ ID NO 194 / SEQ ID NO 208 (antibody, V domains shown) VH: QVQLVQSGAEVKKPGASVKVSCKASGFNIKDTYIHWVIQAPGQGLEWMGRIDPANGDTKSDPKFQVRVTITADTSTSTVYMELSSLRSEDTAVYYCVRDYLYPYYFDFWGQGTTVTVSS VL: EIVLTQSPGTLSLSPGERATLSCRASESVDTYVSWYQQKPGQAPRLLIYGASNRYTGVPDRFSGSGSGTDFTLTISRLEPEDFADYYCGQTYNYPLTFGQGTKLEI | 0.000476
4/94 SEQ ID NO 195 / SEQ ID NO 208 (antibody, V domains shown) VH: QVQLVQSGAEVKKPGASVKVSCKASGFNIKDTYIHWVIQAPGQGLEWMGRIDPANGDTKSAPKFQVRVTITADTSTSTVYMELSSLRSEDTAVYYCVRDYLYPYYFDFWGQGTTVTVSS VL: EIVLTQSPGTLSLSPGERATLSCRASESVDTYVSWYQQKPGQAPRLLIYGASNRYTGVPDRFSGSGSGTDFTLTISRLEPEDFADYYCGQTYNYPLTFGQGTKLEI | 0.000415
4/94 SEQ ID NO 195 / SEQ ID NO 209 (antibody, V domains shown) VH: QVQLVQSGAEVKKPGASVKVSCKASGFNIKDTYIHWVIQAPGQGLEWMGRIDPANGDTKSAPKFQVRVTITADTSTSTVYMELSSLRSEDTAVYYCVRDYLYPYYFDFWGQGTTVTVSS VL: KIVLTQSPGTLSLSPGERATLSCRASESVDTYVSWYQQKPGQAPRLLIYGASNRYTGIPDRFSGSGSGTDFTLTISRLEPEDFADYYCGQTYNYPLTFGQGTKLEI | 0.000438
4/94 SEQ ID NO 195 / SEQ ID NO 201 (antibody, V domains shown) VH: QVQLVQSGAEVKKPGASVKVSCKASGFNIKDTYIHWVIQAPGQGLEWMGRIDPANGDTKSAPKFQVRVTITADTSTSTVYMELSSLRSEDTAVYYCVRDYLYPYYFDFWGQGTTVTVSS VL: KIQMTQSPSSLSASVGDRVTITCRASESVDTYVSWYQQKPGKAPKLLIYGASNRYTGVPSRFSGSGSGTDFTLTISSLQPEDFADYYCGQTYNYPLTFGQGTKLEI | 0.000399
4/94 SEQ ID NO 195 / SEQ ID NO 207 (antibody, V domains shown) VH: QVQLVQSGAEVKKPGASVKVSCKASGFNIKDTYIHWVIQAPGQGLEWMGRIDPANGDTKSAPKFQVRVTITADTSTSTVYMELSSLRSEDTAVYYCVRDYLYPYYFDFWGQGTTVTVSS VL: KIVLTQSPGTLSLSPGERATLSCRASESVDTYVSWYQQKPGQAPRLLIYGASNRYTGVPDRFSGSGSGTDFTLTISRLEPEDFADYYCGQTYNYPLTFGQGTKLEI | 0.000426
4/94 SEQ ID NO 194 / SEQ ID NO 209 (antibody, V domains shown) VH: QVQLVQSGAEVKKPGASVKVSCKASGFNIKDTYIHWVIQAPGQGLEWMGRIDPANGDTKSDPKFQVRVTITADTSTSTVYMELSSLRSEDTAVYYCVRDYLYPYYFDFWGQGTTVTVSS VL: KIVLTQSPGTLSLSPGERATLSCRASESVDTYVSWYQQKPGQAPRLLIYGASNRYTGIPDRFSGSGSGTDFTLTISRLEPEDFADYYCGQTYNYPLTFGQGTKLEI | 0.000448

More lines, now with the values ahead:

koff [s⁻¹] | Binder
0.000544 | 4/94 SEQ ID NO 198 / murine VL (antibody, V domains shown) VH: QVQLVQSGAEVKKPGSSVKVSCKASGFNIKDTYIHWVIQRPGQGLEWMGRIDPANGDTKSDPKFQGRVTITADESTSTAYMELSSLRSEDTAVYYCVRDYLYPYYFDFWGQGTTVTVSS VL: KIVMTQSPKSMSMSVGERVTLNCRASESVDTYVSWYQQKPEQSPELLIYGASNRYTGVPDRFTGSGSATDFTLTISSVQAEDLADYYCGQTYNYPLTFGAGTKLELKR
0.000381 | 4/94 SEQ ID NO 199 / murine VL (antibody, V domains shown) VH: QVQLQESGPGLVKPSETLSLTCTVSGFNIKDTYIHWVIQRPGKGLEWIGRIDPANGDTKSDPSLQSRVTISADTSKNQASLKLSSVTAADTAVYYCVRDYLYPYYFDFWGQGTTVTVSS VL: KIVMTQSPKSMSMSVGERVTLNCRASESVDTYVSWYQQKPEQSPELLIYGASNRYTGVPDRFTGSGSATDFTLTISSVQAEDLADYYCGQTYNYPLTFGAGTKLELKR
0.000452 | 4/94 SEQ ID NO 196 / SEQ ID NO 209 (antibody, V domains shown) VH: QVQLVQSGAEVKKPGASVKVSCKASGFNIKDTYIHWVIQAPGQGLEWMGRIDPANGDTKSDPKFQGRVTITADTSTSTVYMELSSLRSEDTAVYYCVRDYLYPYYFDFWGQGTTVTVSS VL: KIVLTQSPGTLSLSPGERATLSCRASESVDTYVSWYQQKPGQAPRLLIYGASNRYTGIPDRFSGSGSGTDFTLTISRLEPEDFADYYCGQTYNYPLTFGQGTKLEI
0.000434 | 4/94 SEQ ID NO 196 / SEQ ID NO 208 (antibody, V domains shown) VH: QVQLVQSGAEVKKPGASVKVSCKASGFNIKDTYIHWVIQAPGQGLEWMGRIDPANGDTKSDPKFQGRVTITADTSTSTVYMELSSLRSEDTAVYYCVRDYLYPYYFDFWGQGTTVTVSS VL: EIVLTQSPGTLSLSPGERATLSCRASESVDTYVSWYQQKPGQAPRLLIYGASNRYTGVPDRFSGSGSGTDFTLTISRLEPEDFADYYCGQTYNYPLTFGQGTKLEI
0.000728 | 4/94 SEQ ID NO 198 / SEQ ID NO 209 (antibody, V domains shown) VH: QVQLVQSGAEVKKPGSSVKVSCKASGFNIKDTYIHWVIQRPGQGLEWMGRIDPANGDTKSDPKFQGRVTITADESTSTAYMELSSLRSEDTAVYYCVRDYLYPYYFDFWGQGTTVTVSS VL: KIVLTQSPGTLSLSPGERATLSCRASESVDTYVSWYQQKPGQAPRLLIYGASNRYTGIPDRFSGSGSGTDFTLTISRLEPEDFADYYCGQTYNYPLTFGQGTKLEI
0.000705 | 4/94 SEQ ID NO 197 / SEQ ID NO 209 (antibody, V domains shown) VH: QVQLVQSGAEVKKPGSSVKVSCKASGFNIKDTYIHWVIQAPGQGLEWMGRIDPANGDTKSDPKFQGRVTITADESTSTAYMELSSLRSEDTAVYYCVRDYLYPYYFDFWGQGTTVTVSS VL: KIVLTQSPGTLSLSPGERATLSCRASESVDTYVSWYQQKPGQAPRLLIYGASNRYTGIPDRFSGSGSGTDFTLTISRLEPEDFADYYCGQTYNYPLTFGQGTKLEI
0.000684 | 4/94 SEQ ID NO 198 / SEQ ID NO 201 (antibody, V domains shown) VH: QVQLVQSGAEVKKPGSSVKVSCKASGFNIKDTYIHWVIQRPGQGLEWMGRIDPANGDTKSDPKFQGRVTITADESTSTAYMELSSLRSEDTAVYYCVRDYLYPYYFDFWGQGTTVTVSS VL: KIQMTQSPSSLSASVGDRVTITCRASESVDTYVSWYQQKPGKAPKLLIYGASNRYTGVPSRFSGSGSGTDFTLTISSLQPEDFADYYCGQTYNYPLTFGQGTKLEI
0.000717 | 4/94 SEQ ID NO 198 / SEQ ID NO 208 (antibody, V domains shown) VH: QVQLVQSGAEVKKPGSSVKVSCKASGFNIKDTYIHWVIQRPGQGLEWMGRIDPANGDTKSDPKFQGRVTITADESTSTAYMELSSLRSEDTAVYYCVRDYLYPYYFDFWGQGTTVTVSS VL: EIVLTQSPGTLSLSPGERATLSCRASESVDTYVSWYQQKPGQAPRLLIYGASNRYTGVPDRFSGSGSGTDFTLTISRLEPEDFADYYCGQTYNYPLTFGQGTKLEI
0.000703 | 4/94 SEQ ID NO 197 / SEQ ID NO 207 (antibody, V domains shown) VH: QVQLVQSGAEVKKPGSSVKVSCKASGFNIKDTYIHWVIQAPGQGLEWMGRIDPANGDTKSDPKFQGRVTITADESTSTAYMELSSLRSEDTAVYYCVRDYLYPYYFDFWGQGTTVTVSS VL: KIVLTQSPGTLSLSPGERATLSCRASESVDTYVSWYQQKPGQAPRLLIYGASNRYTGVPDRFSGSGSGTDFTLTISRLEPEDFADYYCGQTYNYPLTFGQGTKLEI
0.000657 | 4/94 SEQ ID NO 197 / SEQ ID NO 201 (antibody, V domains shown) VH: QVQLVQSGAEVKKPGSSVKVSCKASGFNIKDTYIHWVIQAPGQGLEWMGRIDPANGDTKSDPKFQGRVTITADESTSTAYMELSSLRSEDTAVYYCVRDYLYPYYFDFWGQGTTVTVSS VL: KIQMTQSPSSLSASVGDRVTITCRASESVDTYVSWYQQKPGKAPKLLIYGASNRYTGVPSRFSGSGSGTDFTLTISSLQPEDFADYYCGQTYNYPLTFGQGTKLEI
0.000683 | 4/94 SEQ ID NO 197 / SEQ ID NO 208 (antibody, V domains shown) VH: QVQLVQSGAEVKKPGSSVKVSCKASGFNIKDTYIHWVIQAPGQGLEWMGRIDPANGDTKSDPKFQGRVTITADESTSTAYMELSSLRSEDTAVYYCVRDYLYPYYFDFWGQGTTVTVSS VL: EIVLTQSPGTLSLSPGERATLSCRASESVDTYVSWYQQKPGQAPRLLIYGASNRYTGVPDRFSGSGSGTDFTLTISRLEPEDFADYYCGQTYNYPLTFGQGTKLEI
0.000717 | 4/94 SEQ ID NO 198 / SEQ ID NO 207 (antibody, V domains shown) VH: QVQLVQSGAEVKKPGSSVKVSCKASGFNIKDTYIHWVIQRPGQGLEWMGRIDPANGDTKSDPKFQGRVTITADESTSTAYMELSSLRSEDTAVYYCVRDYLYPYYFDFWGQGTTVTVSS VL: KIVLTQSPGTLSLSPGERATLSCRASESVDTYVSWYQQKPGQAPRLLIYGASNRYTGVPDRFSGSGSGTDFTLTISRLEPEDFADYYCGQTYNYPLTFGQGTKLEI
